Among the data in patent US20100178296A1 are Kd and IC50 (read off the curve) values, retold here.

In test [1] the target is fusion protein of the extracellular domain of the human inhibitory receptor CD200R fused to the Fc portion of human IgG1 (human) (UniProt Q8TD46). As to the kind of experiment: KinExA, human CD200R-Ig in solution and on the particles. Background: A kinetic exclusion assay measures how much of one partner remains free in solution.
For test [2] the target is unchanged. The test is described as follows: SPR (BIAcore 3000), fusion protein captured by anti-human Fc, antibody at 133 and 13.3 nM, bivalent analyte model.
The target is the same in test [3]. As to the kind of experiment: SPR (BIAcore 3000), fusion protein captured by anti-human Fc, antibody 0.82 to 600 nM, bivalent analyte model. (In general: SPR reads the build-up and loss of mass on a sensor chip optically.)
The target of test [4] is human CD200R, full length, expressed on murine mast cells (DT762) (human) (UniProt Q8TD46).
human CD200R, full length, expressed on murine mast cells (DT762) (human), sequence (Q8TD46 other isoform, or with tags, fused parts or gaps limits assumed, form in doubt): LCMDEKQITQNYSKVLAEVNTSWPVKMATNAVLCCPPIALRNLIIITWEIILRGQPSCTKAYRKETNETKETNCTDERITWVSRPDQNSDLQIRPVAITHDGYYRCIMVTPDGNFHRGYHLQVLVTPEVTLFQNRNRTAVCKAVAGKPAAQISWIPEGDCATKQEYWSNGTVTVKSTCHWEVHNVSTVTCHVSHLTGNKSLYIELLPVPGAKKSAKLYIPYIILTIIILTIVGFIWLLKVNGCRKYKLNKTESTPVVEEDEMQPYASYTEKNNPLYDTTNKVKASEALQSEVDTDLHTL

fusion protein of the extracellular domain of the human inhibitory receptor CD200R fused to the Fc portion of human IgG1 (human), sequence (Q8TD46 other isoform, or with tags, fused parts or gaps limits assumed, form in doubt): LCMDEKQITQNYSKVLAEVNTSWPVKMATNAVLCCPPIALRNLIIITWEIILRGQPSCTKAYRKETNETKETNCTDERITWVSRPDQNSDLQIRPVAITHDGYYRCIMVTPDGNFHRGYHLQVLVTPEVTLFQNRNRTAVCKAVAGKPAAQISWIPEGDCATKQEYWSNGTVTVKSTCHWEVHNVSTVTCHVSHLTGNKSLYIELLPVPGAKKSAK

B1: DX185, rat anti-human inhibitory CD200R monoclonal antibody (antibody, V domains shown)
VH: EIQLQESGPGLVKPSQSFSLTCSVTGYTITSGYDWSWIRKFPGNRMEWMGYINYSGSTVYNPSLRSRFSITRDTSKNQFFLQLNSVASEDTATYYCAKFEASNTYLYDWYFDFWGPGTMVTVSS
VL: DVQMTQSPSYLAASPGESVSISCKAGKNINTNLAWYQAKPGKTNKVLIHSGSTLQSGTPSRFSGSGFGTDFTLTIRSLEPEDFAVYYCQQHNEFPLTFGSGTKLEIKR
Turning to B1, the Kd in test [1] amounted to 0.126 nM; in test [2], 0.202 nM.

B2: DX182, rat anti-human inhibitory CD200R monoclonal antibody (antibody, V domains shown)
VL: EVQMTQSPSTLTASPGESVSINCKASKNIRSYLAWYQQKPGKPNKLLIYSGSTLHSGTPSRFSGSGFGTDFTLTIRNLEPEDFGLYYCQQHHEYPLTFGSGTKLEIKR
VH: EIQLQESGPGLVKPSQSLSLTCSVTGYTITSGYDWSWIRKFPGNKMEWMGYINYGGSTNYKPSLGSRISITRDTSKNQFFLQLNSVSPEDTATYYCAKYNEYKSYIYDWYFDFWGPGTMVTVSS
Turning to B2, the values for the Kd in test [1], in test [3] and in test [2] were 0.056 nM, 0.76 nM and 0.024 nM, respectively. The IC50 (read off the curve) in test [4] is 0.2 µg/mL.

B3: DX184, rat anti-human inhibitory CD200R monoclonal antibody (antibody, V domains shown)
VL: DIVMTQSPTFMSISVGDRVTMSCKASQNVGSNVDWYQQKTGQSPKLLIYKASNRYTGVPDRFTGSGSGTGFTFTITNLQAEDLAVYYCMQSLSFPYTSGAGT
VH: QVQLKESGPGLVQPSQTLSLTCTVSGFSLTNNGVSWVRQPPGKGLEWIAAISSGGGTFYNSALKSRLSISRDTSKSQVFLKMNSLQTEDTAIYFCARDGDWDWYFDFWGPGTMVTVSS
For B3, the Kd in test [1] was determined as 0.026 nM; in test [2], 1.93 nM.

B4: DX178, rat anti-human inhibitory CD200R monoclonal antibody (antibody, V domains shown)
VH: EIQLQESGPGLVKPSQSLSLTCSVTGFTITSGYDWSWIRKFPGNKMEWMGYIGFSGSTVYNPSLNSRISITRDTAKNQFFLQLNSVTTEDTATYHCAKSFVQNTFIYDWFFDFWGPGTMVTVSS
VL: DVRMTQSPSNLAASPGESVSINCKASKNISKYLAWYQQKPGKANRLLICSGSTLQSGTPSRFSGSGFGTDFTLTIRNLEPEDFGLYYCQQHNEFPLTFGSGTKLEIKR
Regarding B4, the Kd in test [1] was 0.628 nM; in test [2], 1.62 nM.
